Here are results for two molecules from US20080220004A1 (published 2008).

The target of test [1] is chimeric receptor Flt(1-7)-EpoR on Baf/3 cells (human) (UniProt P17948). The test can be described thus: cell-based or functional assay.
For a further test, the target named is human VEGF165 (human, UniProt P15692-4 27-191). The test can be described thus: ELISA of rabbit ocular tissue and plasma samples on human VEGF165-coated plates (pharmacokinetic detection). Background: ELISA stands for enzyme-linked immunosorbent assay.
human VEGF165, sequence (P15692 other isoform, or with tags, fused parts or gaps): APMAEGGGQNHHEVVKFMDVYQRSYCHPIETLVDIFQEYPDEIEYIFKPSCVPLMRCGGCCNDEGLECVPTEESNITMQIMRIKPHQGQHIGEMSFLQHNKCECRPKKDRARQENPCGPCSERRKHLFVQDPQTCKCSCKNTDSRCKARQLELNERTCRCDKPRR

chimeric receptor Flt(1-7)-EpoR on Baf/3 cells (human), sequence (P17948 other isoform, or with tags, fused parts or gaps mutant limits assumed): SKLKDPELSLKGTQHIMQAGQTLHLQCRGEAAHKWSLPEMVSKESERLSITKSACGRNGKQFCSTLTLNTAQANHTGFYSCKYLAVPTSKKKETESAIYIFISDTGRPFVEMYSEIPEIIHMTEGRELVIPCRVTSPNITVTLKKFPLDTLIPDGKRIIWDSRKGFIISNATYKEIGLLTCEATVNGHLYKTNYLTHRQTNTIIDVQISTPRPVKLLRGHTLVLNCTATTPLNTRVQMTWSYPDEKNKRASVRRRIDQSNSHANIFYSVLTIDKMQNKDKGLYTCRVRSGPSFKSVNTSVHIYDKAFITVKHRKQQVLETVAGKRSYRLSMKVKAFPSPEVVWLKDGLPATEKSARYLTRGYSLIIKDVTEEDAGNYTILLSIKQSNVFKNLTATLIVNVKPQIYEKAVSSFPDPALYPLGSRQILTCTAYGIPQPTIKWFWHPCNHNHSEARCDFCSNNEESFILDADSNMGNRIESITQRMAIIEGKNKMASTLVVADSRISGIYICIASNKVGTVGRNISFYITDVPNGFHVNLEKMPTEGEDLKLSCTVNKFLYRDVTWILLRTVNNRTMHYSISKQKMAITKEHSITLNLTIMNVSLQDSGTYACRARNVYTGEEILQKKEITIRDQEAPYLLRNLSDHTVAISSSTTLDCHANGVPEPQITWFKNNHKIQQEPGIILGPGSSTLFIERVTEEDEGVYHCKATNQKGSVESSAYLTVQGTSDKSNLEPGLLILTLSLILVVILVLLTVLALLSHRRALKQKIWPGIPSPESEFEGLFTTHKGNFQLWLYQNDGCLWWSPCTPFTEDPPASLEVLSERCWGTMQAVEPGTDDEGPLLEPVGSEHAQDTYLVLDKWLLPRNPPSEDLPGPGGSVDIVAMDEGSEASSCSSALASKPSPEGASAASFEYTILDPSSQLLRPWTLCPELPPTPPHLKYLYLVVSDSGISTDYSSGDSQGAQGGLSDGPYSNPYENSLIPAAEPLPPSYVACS
Experimental for human VEGF165: Ocular and systemic levels of two VEGF inhibitors were determined after a single intravitreal administration to male Pigmented New Zealand Cross Bred rabbits. At various time points following the injection, the rabbits were sacrificed and vitreous, retina, and choroid tissues were collected, as well as blood samples for plasma and serum.
Sample Processing. Generally, vitreal samples were thawed at room temperature and transferred to individual 5 mL polypropylene tubes. An equivalent weight per volume of RIPA buffer (20 MM Tris HCl, pH 7.5, 5 mM benzamidine, 150 mM sodium chloride, 50 mM sodium fluoride, 1 mM sodium orthovanadate, and 1 mM EDTA) was added to each sample, and homogenized (Cyclone I.Q. Microprocessor, Sentry) for 2, 45 second cycles at 5,500 rpm. The samples were then incubated for 20 minutes on ice and then centrifuged for 30 minute at 5,500 rpm at 4° C. The supernatant was removed and stored at −80° C. for analysis. Retinal and choroid samples were similarly processed the samples were homogenized for 30-60 seconds at the highest speed setting (Ultra Tunax T8 Homogenizer with S8N-5G Disposing Element, IKA Laboratoies). The samples were transferred to individual 1.5 mL eppendorf tubes and incubated for 20 minutes on ice. They were then centrifuged for 30 minutes at 5,500 rpm, 4° C. […]

As to “VEGF 121 (R&D Biosystems) (from UniProt P15692 27-147) (ligand)”, the proliferation of Baf/Flt(1-7)-EpoR cells (WST-8 bioreduction), EC50 in test [1] came to 0.018 nM.

B1: mini-VEGF trap (other)
chain: SDTGRPFVEMYSEIPEIIHMTEGRELVIPCRVTSPNITVTLKKFPLDTLIPDGKRIIWDSRKGFIISNATYKEIGLLTCEATVNGHLYKTNYLTHRQTNTIIDVVLSPSHGIELSVGEKLVLNCTARTELNVGIDFNWEYPSSKHQHKKLVNRDLKTQSGSEMKKFLSTLTIDGVTRSDQGLYTCAASSGLMTKKNSTFVRVHEKDKTHTCPPC
notes: also called truncated VEGF trap protein
With B1, in the test with human VEGF165, the binding result is reported as “binds”.
